Blank lines part the entries; values can stand above or below the binder they belong to.
What was measured:
[1] = molecular target: T1, murine IGSF11 expressed on cells (mouse, UniProt P0C673 23-428); assay: IgG FACS MC38-IGSF11
T1 construct: MC38-IGSF11, CT26-IGSF11, MC38-wt (naturally expresses murine IGSF11)
T1 sequence: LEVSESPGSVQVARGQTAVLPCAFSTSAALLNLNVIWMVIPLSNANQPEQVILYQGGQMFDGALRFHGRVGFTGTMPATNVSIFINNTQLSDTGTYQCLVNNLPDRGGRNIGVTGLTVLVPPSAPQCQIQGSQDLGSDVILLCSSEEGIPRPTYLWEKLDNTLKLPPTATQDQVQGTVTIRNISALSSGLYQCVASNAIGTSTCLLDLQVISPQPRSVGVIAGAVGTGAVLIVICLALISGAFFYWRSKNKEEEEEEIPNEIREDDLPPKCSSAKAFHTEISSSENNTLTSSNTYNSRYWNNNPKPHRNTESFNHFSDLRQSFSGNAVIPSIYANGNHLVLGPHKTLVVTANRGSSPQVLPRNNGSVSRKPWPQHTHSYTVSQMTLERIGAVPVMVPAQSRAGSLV
Source text: (§1) Unbound antibodies were removed by washing the cells three time with FACS buffer. Bound antibodies were detected with a mouse anti-human IgG antibody conjugated with AlexaFluor647.

[2] = molecular target: T2, human IGSF11 (VSIG3) expressed on cells (human, UniProt Q5DX21 23-431); assay: IgG FACS MDA-MB-231-IGSF11
T2 sequence: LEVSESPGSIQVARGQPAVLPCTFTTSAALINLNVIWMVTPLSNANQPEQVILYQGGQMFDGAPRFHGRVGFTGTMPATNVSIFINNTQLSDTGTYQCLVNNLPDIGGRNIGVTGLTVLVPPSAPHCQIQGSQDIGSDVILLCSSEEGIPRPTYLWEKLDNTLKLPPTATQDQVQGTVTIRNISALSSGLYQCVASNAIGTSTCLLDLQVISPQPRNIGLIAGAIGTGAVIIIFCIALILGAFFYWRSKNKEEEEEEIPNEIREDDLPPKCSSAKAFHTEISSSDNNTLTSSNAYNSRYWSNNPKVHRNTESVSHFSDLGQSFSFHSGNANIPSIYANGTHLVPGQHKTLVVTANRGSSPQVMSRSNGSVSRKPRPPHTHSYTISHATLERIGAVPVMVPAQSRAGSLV
Source text: as §1

[3] = molecular target: T2, human IGSF11 (VSIG3) expressed on cells; assay: IgG FACS Colo741
Source text: as §1

[4] = molecular target: T3, extracellular domain (ECD) of human IGSF11 (VSIG3), recombinant (human, UniProt Q5DX21 23-241); assay: KinExA, Fab as CBP 80 and 800 pM, n-curve
T3 construct: biotinylated where captured on streptavidin; tags of the reagent not always stated; also called IGSF11 (ECD domain); ECD-IGSF11
T3 sequence: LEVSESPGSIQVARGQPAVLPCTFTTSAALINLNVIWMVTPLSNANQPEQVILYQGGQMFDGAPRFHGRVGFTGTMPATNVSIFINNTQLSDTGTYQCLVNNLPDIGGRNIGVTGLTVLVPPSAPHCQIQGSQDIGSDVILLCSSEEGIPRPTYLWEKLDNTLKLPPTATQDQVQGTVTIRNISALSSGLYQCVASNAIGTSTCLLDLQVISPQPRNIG
Procedure: (§2) Solution-based binding affinities were determined using the Kinetic Exclusion Assay (KinExA) 4000 system as described below, where binding partners were combined and allowed to reach equilibrium prior to measurement.
(§3) Briefly, anti-IGSF11 ABPs of the invention as Fabs were used as Constant Binding Partner (CBP) and human recombinant IGSF11 ECD was used as Titrant. After reaching equilibrium, free CBP were detected using PMMA beads coated with IGSF11 ECD or IGSF11 IgC2-domain Fc-fusion protein and an anti-human F(ab′)2 antibody conjugated with AlexaFluor647. […] The CBP was incubated with different Titrant concentrations for 16 h (or 72-90 h) to reach equilibrium. The equilibrium binding curves of different CBP concentrations were measured in duplicates and drift correction was applied. The n-curve analysis tool within the KinExA Pro Software version 4.4.26 was applied to obtain one KD value per set of binding curves by finding the best fit of a 1:1 binding model to the data.

[5] = molecular target: T3, extracellular domain (ECD) of human …; assay: KinExA, Fab as CBP 15 pM, single binding curve
Procedure: as §2, §3

EC50 [1]: < 0.5 nM | EC50 [2]: < 0.5 nM | EC50 [3]: < 0.5 nM
B1: D-222 (IgG format) (antibody, V domains shown)
VH: EVQLVESGGGLVKPGGSLRLSCAASGFTFSHAWISWVRQAPGKGLEWVGQIKGGPGSGGTSYAEPVKGRFTISRDDSKNTLYLQMNSLKTEDTAVYYCARLGIYSGFDYWGQGTLVTVSS
VL: SYELTQPPSVSVSPGQTASITCSGDKLGDKYASWYQQKPGQSPVLVIYQDSKRPSGIPERFSGSNSGNTATLTISGTQAEDEADYYCHTYSHRPEIVVFGGGTKLTVL

Kd [4]: < 0.15 nM
B2: D-222 (Fab, KinExA constant binding partner) (Fab, V domains shown)
VH: B1 VH
VL: B1 VL
notes: Fab

Kd [5]: < 0.01 nM
B3: D-114 (Fab, KinExA constant binding partner) (Fab, V domains shown)
VH: EVQLLESGGGLVQPGGSLRLSCAASGFTFQFSALSWVRQAPGKGLEWVSAISYGGGSKYYADSVKGRFTISRDNSKNTLYLQMNSLRAEDTAVYYCARDSRDAYGVAFDLWGQGTMVTVSS
VL: ASVLTQPPSVSAAPGQKVTISCSGSSSNIGNNYVSWYQQLPGTAPKLLIYDNNKRPSGIPDRFSGSKSGTSATLGITGLQAEDEADYYCLSYKLSPGAYVFGGGTKLTVL
notes: Fab
